Drawing on the supplement of paper PMC10567573, this text covers protein stability index for 36 sequences.

A short description of this series: protein stability index of a GFP-peptide fusion (GPS, HEK-293T) (PSI 1-6); higher = more stable. To be noted: c terminus: a fixed tail appended.

± gives the standard deviation.
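Also: 24-mer peptide tiles fused after GFP, lentivirally expressed, FACS-sorted into six equal bins by GFP/DsRed ratio, decoded by Illumina sequencing, PSI is the read-weighted mean bin number.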

In the case of KFSPFGQWWASVGMDDFLGVYSMP [TLE6], the protein stability index reads like this: (treatment: DMSO) 2.62 ± 0.67; (treatment: MLN4924 1 uM, 8 h) 2.35 ± 0.4.

For KGAVPRSIPNLAEVKKKGKMKKLG [HDAC6], the protein stability index runs as follows: (treatment: DMSO) 4.51 ± 0.36; (treatment: MLN4924 1 uM, 8 h) 4.35 ± 0.5.

On to KHPRQTLEVINLLRKHRELCDVVL [KLHL20], for which the protein stability index stood at 2.34 ± 0.43 (treatment: DMSO) and 2.17 ± 0.25 (treatment: MLN4924 1 uM, 8 h).

For the sequence KKKTKVLKQRTVIEMFKSITHSTV [EHMT1], the protein stability index is 2.44 ± 0.35 (treatment: DMSO) and 2.19 ± 0.47 (treatment: MLN4924 1 uM, 8 h).

Consider KKNWRRVYKSLLLLAYLIRNGSER [CLINT1], for which the protein stability index stood at 2.35 ± 0.65 (treatment: DMSO) and 2.44 ± 0.29 (treatment: MLN4924 1 uM, 8 h).

Take KKREKQREQMEQMKQRIAEENIMK [FAM50A]: the protein stability index worked out at 4.8 ± 0.18 (treatment: DMSO) and 4.78 ± 0.41 (treatment: MLN4924 1 uM, 8 h).

For KKRFTRRSHLIGHQRTHSEEETYK [ZNF449], the protein stability index by setting is: (treatment: DMSO) 4.12 ± 0.42; (treatment: MLN4924 1 uM, 8 h) 4.23 ± 0.46.

As to KKRKVDGLSTEAEQPFIPVEVLVD [PRAME], the protein stability index is 3.8 ± 0.52 (treatment: DMSO) and 4.04 ± 0.27 (treatment: MLN4924 1 uM, 8 h).

Regarding KKTVHYYAELGQCSVFPATDAPEQ [PLK2], the protein stability index runs as follows: (treatment: DMSO) 3.6 ± 0.27; (treatment: MLN4924 1 uM, 8 h) 3.64 ± 0.31.

KLRGPEPAATEAYGSGDTPGGPCD [TBX6]: the protein stability index came out at 5.35 ± 0.21 (treatment: DMSO) and 5.28 ± 0.31 (treatment: MLN4924 1 uM, 8 h).

On to KLSSFYSLKLIKRLYVDKSLNLST [SERPINB5], for which the protein stability index is, setting by setting: (treatment: DMSO) 2.46 ± 0.42; (treatment: MLN4924 1 uM, 8 h) 2.18 ± 0.36.

For KLTLENFYSNLILQHEERETRQKK [STK38L], the protein stability index amounted to 3.24 ± 0.39 (treatment: DMSO) and 3.29 ± 0.46 (treatment: MLN4924 1 uM, 8 h).

As to KNIFRIRFHDPSPAQSHTLQANDV [NET1], the protein stability index worked out at 2.76 ± 0.31 (treatment: DMSO) and 3.06 ± 0.24 (treatment: MLN4924 1 uM, 8 h).

Turning to KQKNAYIGTQGPLENTYRDFWLMV [PTPN9], the protein stability index reads like this: (treatment: DMSO) 2.44 ± 0.51; (treatment: MLN4924 1 uM, 8 h) 2.4 ± 0.36.

As for KRQVPTEQARAYAEKNCMTFFEVS [RAB40C], the protein stability index runs as follows: (treatment: DMSO) 3.16 ± 0.36; (treatment: MLN4924 1 uM, 8 h) 3.29 ± 0.37.

Turning to KSMGLKKKAFVWARNIGFKVNSKK [ACSBG2], the protein stability index reads like this: (treatment: DMSO) 2.91 ± 0.3; (treatment: MLN4924 1 uM, 8 h) 2.83 ± 0.37.

For the sequence KTAGKENHFDMHRVGKWHQDFPVK [ZNF75A], the protein stability index came out at 3.09 ± 0.36 (treatment: DMSO) and 3.38 ± 0.13 (treatment: MLN4924 1 uM, 8 h).

For KTTLARQLQHDFPRALIFSTDDFF [N4BP2L1], the protein stability index worked out at 2.41 ± 0.28 (treatment: DMSO) and 2.53 ± 0.25 (treatment: MLN4924 1 uM, 8 h).

Consider KVMKQPRCGVPDVAQFVLTEGNPR [MMP1], for which the protein stability index runs as follows: (treatment: DMSO) 3.32 ± 0.1; (treatment: MLN4924 1 uM, 8 h) 3.38 ± 0.17.

Take LADYLVPILAPRIFGSNKWTTEQQ [ARL6IP1]: the protein stability index runs as follows: (treatment: DMSO) 2.34 ± 0.49; (treatment: MLN4924 1 uM, 8 h) 2.16 ± 0.16.

With LANRLCLPHLVALTEQYTVTGLME [RHOBTB2], the protein stability index came out at 2.57 ± 0.6 (treatment: DMSO) and 2.43 ± 0.39 (treatment: MLN4924 1 uM, 8 h).

In the case of LAQTRAEGQRQAQEYEALLNIKVK [KRT18], the protein stability index (treatment: DMSO) came out at 4.26 ± 0.38 and the protein stability index (treatment: MLN4924 1 uM, 8 h) was found to be 4.17 ± 0.15.

As to LCAIAGVLTIALPVPVIVSNFNYF [KCNA1], the protein stability index (treatment: DMSO) turned out to be 3.23 ± 0.18 and the protein stability index (treatment: MLN4924 1 uM, 8 h) worked out at 3.04 ± 0.32.

Consider LCKEMVPLAEQTPLTLQSQPKEPQ [ZSCAN9], for which the protein stability index reads like this: (treatment: DMSO) 5 ± 0.13; (treatment: MLN4924 1 uM, 8 h) 5.04 ± 0.24.

For LCQHFEAVHSGTPVTNNLLEKCKT [SPACA9], the protein stability index runs as follows: (treatment: DMSO) 4.14 ± 0.13; (treatment: MLN4924 1 uM, 8 h) 4.19 ± 0.17.

On to LCREEPVVQGPDGRLELKPLLLRL [FANCE], for which the protein stability index reads like this: (treatment: DMSO) 2.19 ± 0.25; (treatment: MLN4924 1 uM, 8 h) 2.48 ± 0.15.

Consider LDKLLQGGIETGSITEMFGEFRTG [RAD51], for which the protein stability index is, setting by setting: (treatment: DMSO) 3.07 ± 0.26; (treatment: MLN4924 1 uM, 8 h) 3.06 ± 0.28.

Regarding LDPVLQAPGTGPAQTELLCCLVKM [FANCE], the protein stability index is 2.47 ± 0.32 (treatment: DMSO) and 2.32 ± 0.49 (treatment: MLN4924 1 uM, 8 h).

Sequence LEAHCVEFLTKHLRADNAFMLLTQ [BTBD1] had a protein stability index (treatment: DMSO) of 2.55 ± 0.76 and a protein stability index (treatment: MLN4924 1 uM, 8 h) of 2.81 ± 0.47.

Regarding LEAQPYEAVFLRAVKLYNSGDFRS [P3H4], the protein stability index by setting is: (treatment: DMSO) 2.42 ± 0.27; (treatment: MLN4924 1 uM, 8 h) 2.23 ± 0.28.

LEEDLYELFKKDPGFDRGQFHKQI [PI4K2A]: the protein stability index is, setting by setting: (treatment: DMSO) 3.56 ± 0.14; (treatment: MLN4924 1 uM, 8 h) 3.56 ± 0.19.

Regarding LEEQLQGWGEVMLMADKVLRWERA [ARL6IP1], the protein stability index is 2.49 ± 0.31 (treatment: DMSO) and 2.49 ± 0.27 (treatment: MLN4924 1 uM, 8 h).

Turning to LEKDTMDNWDEKKLEEVVNKKHGE [ZC3H15], the protein stability index is, setting by setting: (treatment: DMSO) 5.54 ± 0.095; (treatment: MLN4924 1 uM, 8 h) 5.46 ± 0.19.

As for LEKESDTPLQQVSIEEILEEQRVE [LSM1], the protein stability index (treatment: DMSO) amounted to 5.26 ± 0.26 and the protein stability index (treatment: MLN4924 1 uM, 8 h) was determined as 5.53 ± 0.098.

Consider LEKGSFVGNISKDLGLAPRELAER [PCDHGA10], for which the protein stability index turned out to be 4.43 ± 0.35 (treatment: DMSO) and 4.54 ± 0.33 (treatment: MLN4924 1 uM, 8 h).

With LFEGLGRDKAEELLQLPDTKVGSF [SLA], the protein stability index was 3.82 ± 0.28 (treatment: DMSO) and 4.13 ± 0.15 (treatment: MLN4924 1 uM, 8 h).
